# T1: HDP1 homeodomain-like (Plasmodium falciparum, UniProt Q8IKH4 2990-3078)
# T1 sequence: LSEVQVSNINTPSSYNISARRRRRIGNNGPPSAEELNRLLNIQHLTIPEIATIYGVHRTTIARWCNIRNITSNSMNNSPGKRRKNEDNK
# Target: T1, HDP1 homeodomain-like
# Assay: gcPBM; about 25 ug protein; PBS, 1% milk, 0.2 mg/ml BSA, salmon testes DNA, 0.03% Triton X-100
# Conditions: tags: N-terminal GST (pGEX-4T-1), kept; chain copies: 2; label: surface-attached array probe
row,Binder,binding signal
1,GTGCAC_site10728 (dsDNA) DNA 1: TCATACATGGTGTGTTTGCACTTGACCTATATTCAT DNA 2: ATGAATATAGGTCAAGTGCAAACACACCATGTATGA,"8.23 ln median PBM intensity, better of two orientations"
2,GTGCAC_site10338 (dsDNA) DNA 1: TGATATAAAATTAAAGTGCAAAAAAAAAATAAAAAA DNA 2: TTTTTTATTTTTTTTTTGCACTTTAATTTTATATCA,"8.82 ln median PBM intensity, better of two orientations"
3,GTGCAC_site10319 (dsDNA) DNA 1: TCATTTTAAATATGTGTGCACGTTATAATTTACACA DNA 2: TGTGTAAATTATAACGTGCACACATATTTAAAATGA,"9.66 ln median PBM intensity, better of two orientations"
4,GTGCAC_site10465 (dsDNA) DNA 1: TGGTATGCAATATTGGTGCGTATATATTTTAAAGGG DNA 2: CCCTTTAAAATATATACGCACCAATATTGCATACCA,"8.58 ln median PBM intensity, better of two orientations"
5,GTGCAC_site10737 (dsDNA) DNA 1: TAATTTCTTTAGGGGGTGCTTTTATAGTTTTTATTA DNA 2: TAATAAAAACTATAAAAGCACCCCCTAAAGAAATTA,"8.27 ln median PBM intensity, better of two orientations"
6,GTGCAC_site10110 (dsDNA) DNA 1: AGTAGATTTTTATTAGTGCATTTTATACTACAAAAA DNA 2: TTTTTGTAGTATAAAATGCACTAATAAAAATCTACT,"8.86 ln median PBM intensity, better of two orientations"
7,GTGCAC_site9492 (dsDNA) DNA 1: GTCAACAAGAATTAAGTGCATAATTTTTTATTAAAT DNA 2: ATTTAATAAAAAATTATGCACTTAATTCTTGTTGAC,"9.67 ln median PBM intensity, better of two orientations"
8,GTGCAC_site10104 (dsDNA) DNA 1: CTTATAAGAATACTAGTGCACATAATTTAACGAAAA DNA 2: TTTTCGTTAAATTATGTGCACTAGTATTCTTATAAG,"10 ln median PBM intensity, better of two orientations"
9,GTGCAC_site9698 (dsDNA) DNA 1: GACTTTTCATTTATAGTGCAAGTTTTTTTTTTTTTT DNA 2: AAAAAAAAAAAAAACTTGCACTATAAATGAAAAGTC,"7.84 ln median PBM intensity, better of two orientations"
10,GTGCAC_site10231 (dsDNA) DNA 1: TTCCAAGAAATAATAGTGCATTATTCATTTTAATAA DNA 2: TTATTAAAATGAATAATGCACTATTATTTCTTGGAA,"9.61 ln median PBM intensity, better of two orientations"
11,GTGCAC_site10652 (dsDNA) DNA 1: ATATATATATTTTGGTAGCACCTCCTTTTTTTTTTT DNA 2: AAAAAAAAAAAGGAGGTGCTACCAAAATATATATAT,"8.08 ln median PBM intensity, better of two orientations"
12,GTGCAC_site10546 (dsDNA) DNA 1: ATGAAATATTTATTTGTGCACTTAATTTGTTGGAAA DNA 2: TTTCCAACAAATTAAGTGCACAAATAAATATTTCAT,"9.86 ln median PBM intensity, better of two orientations"
13,GTGCAC_site10123 (dsDNA) DNA 1: ATACCTATTTGATGAGTGCATTATCCAATATATGTA DNA 2: TACATATATTGGATAATGCACTCATCAAATAGGTAT,"8.94 ln median PBM intensity, better of two orientations"
14,GTGCAC_site10461 (dsDNA) DNA 1: TTTATACATACATTCGTGCACATACGTATAACATAT DNA 2: ATATGTTATACGTATGTGCACGAATGTATGTATAAA,"10.1 ln median PBM intensity, better of two orientations"
15,GTGCAC_site10533 (dsDNA) DNA 1: CGTAAATTTTTCTAAGTGCATGTTAATTTTTCAATT DNA 2: AATTGAAAAATTAACATGCACTTAGAAAAATTTACG,"7.89 ln median PBM intensity, better of two orientations"
16,GTGCAC_site10156 (dsDNA) DNA 1: ACCATATAAAGTTAGGTGCATTTGTATGTATCTTAC DNA 2: GTAAGATACATACAAATGCACCTAACTTTATATGGT,"9.55 ln median PBM intensity, better of two orientations"
17,GTGCAC_site10031 (dsDNA) DNA 1: ATAAATAAAACAACAGTGCAATAAAATTAGTTGAGG DNA 2: CCTCAACTAATTTTATTGCACTGTTGTTTTATTTAT,"8.8 ln median PBM intensity, better of two orientations"
18,GTGCAC_site10762 (dsDNA) DNA 1: TGTAAAATATAAAAAGTGCATTTCTTTTAATATGAT DNA 2: ATCATATTAAAAGAAATGCACTTTTTATATTTTACA,"7.62 ln median PBM intensity, better of two orientations"
19,GTGCAC_site10425 (dsDNA) DNA 1: CATGAGGTATAAAAGGTGCAAATTAATGAGAACATT DNA 2: AATGTTCTCATTAATTTGCACCTTTTATACCTCATG,"9.91 ln median PBM intensity, better of two orientations"
20,GTGCAC_site10318 (dsDNA) DNA 1: ATATATATATATATAGTGCAAATATCTTCTTTATAA DNA 2: TTATAAAGAAGATATTTGCACTATATATATATATAT,"9.8 ln median PBM intensity, better of two orientations"
21,GTGCAC_site10269 (dsDNA) DNA 1: TGTGTATATATGCTGGTGCAACTTTAAAAAATAATC DNA 2: GATTATTTTTTAAAGTTGCACCAGCATATATACACA,"9.48 ln median PBM intensity, better of two orientations"
22,GTGCAC_site10061 (dsDNA) DNA 1: AAAAAAAAAAAAAGAGTGCAAACTATGATAATTTAA DNA 2: TTAAATTATCATAGTTTGCACTCTTTTTTTTTTTTT,"8.19 ln median PBM intensity, better of two orientations"

row,Binder,binding signal
1,GTGCAC_site9778 (dsDNA) DNA 1: CACCCTTTACACAAGGTGCATACTTTATTATATTTT DNA 2: AAAATATAATAAAGTATGCACCTTGTGTAAAGGGTG,"8.31 ln median PBM intensity, better of two orientations"
2,GTGCAC_site10078 (dsDNA) DNA 1: AATTATATATAAAAAGTGCAAAACGATAATTCATCA DNA 2: TGATGAATTATCGTTTTGCACTTTTTATATATAATT,"8.44 ln median PBM intensity, better of two orientations"
3,GTGCAC_site10676 (dsDNA) DNA 1: TTTTGTTATTTTTTAGTGCATATAAAGGTTGTTAAG DNA 2: CTTAACAACCTTTATATGCACTAAAAAATAACAAAA,"9.65 ln median PBM intensity, better of two orientations"
4,GTGCAC_site9469 (dsDNA) DNA 1: ACAAAAAAAAACGTGGTGCATTAATAATATTGTATA DNA 2: TATACAATATTATTAATGCACCACGTTTTTTTTTGT,"9.75 ln median PBM intensity, better of two orientations"
5,GTGCAC_site9435 (dsDNA) DNA 1: ATATTTTGTTTTATAGTGCACATGGGCATATATTAA DNA 2: TTAATATATGCCCATGTGCACTATAAAACAAAATAT,"9.71 ln median PBM intensity, better of two orientations"
6,GTGCAC_site10399 (dsDNA) DNA 1: CATATTATTATTTTGGTGCATACTTATATATATTTT DNA 2: AAAATATATATAAGTATGCACCAAAATAATAATATG,"9.47 ln median PBM intensity, better of two orientations"
7,GTGCAC_site9397 (dsDNA) DNA 1: TGTGTTAGCAAAAAAGTGCACAGGGAAAAAAAAATA DNA 2: TATTTTTTTTTCCCTGTGCACTTTTTTGCTAACACA,"9.59 ln median PBM intensity, better of two orientations"
8,GTGCAC_site9715 (dsDNA) DNA 1: TTTTTTAAATTGGTAGTGCAATATGATTGAACAAAA DNA 2: TTTTGTTCAATCATATTGCACTACCAATTTAAAAAA,"9.52 ln median PBM intensity, better of two orientations"
9,GTGCAC_site9865 (dsDNA) DNA 1: ATGTTGCTCATATGAGTGCACGTTTCATTTCAGTTT DNA 2: AAACTGAAATGAAACGTGCACTCATATGAGCAACAT,"8.54 ln median PBM intensity, better of two orientations"
10,GTGCAC_site9692 (dsDNA) DNA 1: TATATATGTATAAGAGTGCATATGCATATATGTATA DNA 2: TATACATATATGCATATGCACTCTTATACATATATA,"8.71 ln median PBM intensity, better of two orientations"
11,GTGCAC_site10244 (dsDNA) DNA 1: ATCCGCTGCCTTTTGGTGCAGAACATAATCATGTAA DNA 2: TTACATGATTATGTTCTGCACCAAAAGGCAGCGGAT,"8.03 ln median PBM intensity, better of two orientations"
12,GTGCAC_site10413 (dsDNA) DNA 1: AATAAATTCATGATAGTGCAAAAATTATTTTTGTTA DNA 2: TAACAAAAATAATTTTTGCACTATCATGAATTTATT,"8.5 ln median PBM intensity, better of two orientations"
13,GTGCAC_site9712 (dsDNA) DNA 1: GAAAGAAAATATTAAGTGCATATTTTAATGATACAA DNA 2: TTGTATCATTAAAATATGCACTTAATATTTTCTTTC,"8.76 ln median PBM intensity, better of two orientations"
14,GTGCAC_site9450 (dsDNA) DNA 1: ATAACAAAATGAAGAGTGCATTACCAAGTGGGTAAA DNA 2: TTTACCCACTTGGTAATGCACTCTTCATTTTGTTAT,"7.77 ln median PBM intensity, better of two orientations"
15,GTGCAC_site9646 (dsDNA) DNA 1: TGTATATATATCTCAGTGCATTGCAAATTAAAAATT DNA 2: AATTTTTAATTTGCAATGCACTGAGATATATATACA,"9.68 ln median PBM intensity, better of two orientations"
16,GTGCAC_site10124 (dsDNA) DNA 1: AAAAAAAAAAAATACGTGCACTATGATATATTATAT DNA 2: ATATAATATATCATAGTGCACGTATTTTTTTTTTTT,"9.03 ln median PBM intensity, better of two orientations"
17,GTGCAC_site10509 (dsDNA) DNA 1: ACAACAATTCACTTGATGCACTAACCAAAAAAATAA DNA 2: TTATTTTTTTGGTTAGTGCATCAAGTGAATTGTTGT,"7.97 ln median PBM intensity, better of two orientations"
18,GTGCAC_site10539 (dsDNA) DNA 1: ATATATTTTTATATAGTGCAAGTAATAAAAAGGAAT DNA 2: ATTCCTTTTTATTACTTGCACTATATAAAAATATAT,"8.63 ln median PBM intensity, better of two orientations"
19,GTGCAC_site9631 (dsDNA) DNA 1: AAAAATAATCATTAGGTGCAAAAAATATATATATAT DNA 2: ATATATATATATTTTTTGCACCTAATGATTATTTTT,"9.83 ln median PBM intensity, better of two orientations"
20,GTGCAC_site9886 (dsDNA) DNA 1: ATTTATTTATATTTAGTGCAATACTATTTTTAAATA DNA 2: TATTTAAAAATAGTATTGCACTAAATATAAATAAAT,"9.95 ln median PBM intensity, better of two orientations"
21,GTGCAC_site9948 (dsDNA) DNA 1: CTTAAATTAATTTGGGTGCATATATTTGTACACATT DNA 2: AATGTGTACAAATATATGCACCCAAATTAATTTAAG,"9.77 ln median PBM intensity, better of two orientations"
22,GTGCAC_site9634 (dsDNA) DNA 1: AAATTGAGACAACAGGTGCATATAAATATACAGTGT DNA 2: ACACTGTATATTTATATGCACCTGTTGTCTCAATTT,"9.49 ln median PBM intensity, better of two orientations"

# — publication PMC11417369, “DNA sequence and chromatin differentiate sequence-specific transcription factor binding in the human malaria parasite Plasmodium falciparum”
